From paper PMC3167946

Target: Envelope glycoprotein gp120Bal (HIV-1 isolate Bal)
Assay: ELISA

Row | Substance | EC50
1 | human germline HV control scFv (human germline b12 HV recombined with human mature b12 D(J)-segments and VL) | 24.1 nM
2 | macaque germline HV control scFv (macaque germline b12 HV recombined with human mature b12 D(J)-segments and VL) | 2500 nM
